{"source": "paper PMC9905591", "about": "“A single point mutation expands the applicability of ostreolysin A6 in biomedicine” (Scientific Reports, 2023)", "binders": {"B1": {"name": "Δ48PlyB (pleurotolysin B) (domain or fragment, Pleurotus ostreatus, UniProt Q5W9E8 49-523, looked up)", "chain": "SQAGDTLNDVIQDPTRRNKLINDNNLLKGIIMGRDGPVPSSRELIVRPDTLRAIINNRATIETTTMEAEFTETLMESNYNSASVKVSAPFITANSEYSESSSFKNTETEKSMYTSSRYLFPQGRIDFTTPDSGFDDVIKLSPQFTSGVQAALAKATGTEKREALQNLFQEYGHVFRTKVHIGGVLSAHTMETFSRSENETEVKQDVKAGLEGAVKGWGGGATAGHGNTQGTITTSQNRKLNVKYIVNGGDYTKIQNTEEWVASTNQSEHWRVIEVTEVTAVADLLPQPIRGQVKDLLKPLLGKWVDVEKVPGLESLPVSVYRPKGAIPAGWFWLGDTADASKALLVKPTLPARSGRNPALTSLHQGSGMTEQPFVDLPQYQYLSTYFGSFAHDTPPGSTLRGLRPDHVLPGRYEMHGDTISTAVYVTRPVDVPFPEDECFDLKSLVRVKLPGSGNPPKPRSALKKSMVLFDSGEK"}}, "target": "T1, OlyA6 mutant E69A (Pleurotus ostreatus, UniProt P83467 1-138, E69A)", "T1 sequence": "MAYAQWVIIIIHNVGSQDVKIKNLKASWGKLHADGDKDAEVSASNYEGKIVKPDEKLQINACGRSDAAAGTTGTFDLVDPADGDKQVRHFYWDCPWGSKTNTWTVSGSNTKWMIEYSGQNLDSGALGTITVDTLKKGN", "experiment": "cell-based or functional assay", "data": [{"binder": "B1", "values": [{"measurement": "hazard ratio against buffer, Kaplan-Meier survival of Colorado potato beetle larvae on E69A/PlyB-treated leaf discs", "result": 2.76}]}]}
